Values quoted from earlier work, collected in patent US7951914B2, “Genetically modified cyclic-nucleotide controlled ion channels” (Forschungszentrum Julich GmbH, priority 2001, dated 2011).

Molecular target: T1, CNG channels comprising the α3 subunits from the epithelium of the nose (Bos taurus, UniProt Q03041)
T1 sequence (Q03041 1-663): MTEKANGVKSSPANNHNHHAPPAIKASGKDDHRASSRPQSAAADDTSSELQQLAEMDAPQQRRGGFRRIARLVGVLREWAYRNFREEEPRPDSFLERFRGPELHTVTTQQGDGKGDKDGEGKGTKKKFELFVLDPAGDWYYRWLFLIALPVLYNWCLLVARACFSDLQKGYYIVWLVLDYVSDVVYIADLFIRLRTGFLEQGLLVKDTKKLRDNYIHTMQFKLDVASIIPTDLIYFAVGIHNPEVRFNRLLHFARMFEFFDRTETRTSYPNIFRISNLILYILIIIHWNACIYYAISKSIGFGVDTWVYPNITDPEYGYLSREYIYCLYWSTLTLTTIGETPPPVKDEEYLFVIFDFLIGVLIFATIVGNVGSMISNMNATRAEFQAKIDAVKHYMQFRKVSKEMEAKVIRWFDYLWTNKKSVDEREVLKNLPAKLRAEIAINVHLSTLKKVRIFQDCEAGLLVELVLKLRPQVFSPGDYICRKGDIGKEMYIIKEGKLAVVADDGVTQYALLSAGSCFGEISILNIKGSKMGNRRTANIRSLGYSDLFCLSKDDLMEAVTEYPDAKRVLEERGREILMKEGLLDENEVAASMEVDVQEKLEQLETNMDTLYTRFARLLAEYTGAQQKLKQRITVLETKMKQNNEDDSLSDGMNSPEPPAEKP
Settings: Dhallan 1990; Ludwig 1990; cited from earlier work

B1: CNG channels comprising the α3 subunits: prior-art CNG channels of α3 subunits from the epithelium of the nose (protein, UniProt Q16280 1-664, looked up)
Cyclic nucleotide-gated …: MTEKTNGVKSSPANNHNHHAPPAIKANGKDDHRTSSRPHSAADDDTSSELQRLADVDAPQQGRSGFRRIVRLVGIIREWANKNFREEEPRPDSFLERFRGPELQTVTTQEGDGKGDKDGEDKGTKKKFELFVLDPAGDWYYCWLFVIAMPVLYNWCLLVARACFSDLQKGYYLVWLVLDYVSDVVYIADLFIRLRTGFLEQGLLVKDTKKLRDNYIHTLQFKLDVASIIPTDLIYFAVDIHSPEVRFNRLLHFARMFEFFDRTETRTNYPNIFRISNLVLYILVIIHWNACIYYAISKSIGFGVDTWVYPNITDPEYGYLAREYIYCLYWSTLTLTTIGETPPPVKDEEYLFVIFDFLIGVLIFATIVGNVGSMISNMNATRAEFQAKIDAVKHYMQFRKVSKGMEAKVIRWFDYLWTNKKTVDEREILKNLPAKLRAEIAINVHLSTLKKVRIFHDCEAGLLVELVLKLRPQVFSPGDYICRKGDIGKEMYIIKEGKLAVVADDGVTQYALLSAGSCFGEISILNIKGSKMGNRRTANIRSLGYSDLFCLSKDDLMEAVTEYPDAKKVLEERGREILMKEGLLDENEVATSMEVDVQEKLGQLETNMETLYTRFGRLLAEYTGAQQKLKQRITVLETKMKQNNEDDYLSDGMNSPELAAADEP
cGMP concentration that activates the channels: 2 µM
